Measurements reported in publication PMC11106242, “Homozygous EPRS1 missense variant causing hypomyelinating leukodystrophy-15 alters variant-distal mRNA m^6A site accessibility” (Nature Communications, 2024).

Molecular target: the molecule itself
Assay: SEC; Superdex 200 size-exclusion column pre-calibrated with Bio-Rad gel-filtration standards, in purification buffer (50 mM Tris-HCl pH 8.0, 100 mM NaCl, 10% glycerol); monomer to dimer

Protein	stoichiometry N
Wild-type ProRS fragment of human EPRS1 (aa 930-1512) (domain or fragment, UniProt P07814 930-1512, looked up, ProRS fragment of human EPRS1 (glutamyl-prolyl-tRNA synthetase), aa 930-1512, subcloned in pTRC-HisB; also called recombinant WT ProRS; ProRS domain; source: E. coli BL21 Codon-plus (DE3)RIPL, purified (HisTrap HP column)) IAVQELLQLKAQYKSLIGVEYKPVSATGAEDKDKKKKEKENKSEKQNKPQKQNDGQRKDPSKNQGGGLSSSGAGEGQGPKKQTRLGLEAKKEENLADWYSQVITKSEMIEYHDISGCYILRPWAYAIWEAIKDFFDAEIKKLGVENCYFPMFVSQSALEKEKTHVADFAPEVAWVTRSGKTELAEPIAIRPTSETVMYPAYAKWVQSHRDLPIKLNQWCNVVRWEFKHPQPFLRTREFLWQEGHSAFATMEEAAEEVLQILDLYAQVYEELLAIPVVKGRKTEKEKFAGGDYTTTIEAFISASGRAIQGGTSHHLGQNFSKMFEIVFEDPKIPGEKQFAYQNSWGLTTRTIGVMTMVHGDNMGLVLPPRVACVQVVIIPCGITNALSEEDKEALIAKCNDYRRRLLSVNIRVRADLRDNYSPGWKFNHWELKGVPIRLEVGPRDMKSCQFVAVRRDTGEKLTVAENEAETKLQAILEDIQVTLFTRASEDLKTHMVVANTMEDFQKILDSGKIVQIPFCGEIDCEDWIKKTTARDQDLEPGAPSMGAKSLCIPFKPLCELQPGAKCVCGKNPAKYYTLFGRSY	2
P1482T mutant ProRS fragment of human EPRS1 (aa 930-1512) (domain or fragment, UniProt P07814 930-1512, looked up, The substitution is a natural patient variant; also called Pro1482Thr ProRS; P1482T ProRS; source: E. coli BL21 Codon-plus (DE3)RIPL, purified (HisTrap HP column)) IAVQELLQLKAQYKSLIGVEYKPVSATGAEDKDKKKKEKENKSEKQNKPQKQNDGQRKDPSKNQGGGLSSSGAGEGQGPKKQTRLGLEAKKEENLADWYSQVITKSEMIEYHDISGCYILRPWAYAIWEAIKDFFDAEIKKLGVENCYFPMFVSQSALEKEKTHVADFAPEVAWVTRSGKTELAEPIAIRPTSETVMYPAYAKWVQSHRDLPIKLNQWCNVVRWEFKHPQPFLRTREFLWQEGHSAFATMEEAAEEVLQILDLYAQVYEELLAIPVVKGRKTEKEKFAGGDYTTTIEAFISASGRAIQGGTSHHLGQNFSKMFEIVFEDPKIPGEKQFAYQNSWGLTTRTIGVMTMVHGDNMGLVLPPRVACVQVVIIPCGITNALSEEDKEALIAKCNDYRRRLLSVNIRVRADLRDNYSPGWKFNHWELKGVPIRLEVGPRDMKSCQFVAVRRDTGEKLTVAENEAETKLQAILEDIQVTLFTRASEDLKTHMVVANTMEDFQKILDSGKIVQIPFCGEIDCEDWIKKTTARDQDLEPGAPSMGAKSLCITFKPLCELQPGAKCVCGKNPAKYYTLFGRSY	2
